Source: patent US8399204B2, “Method for screening of substance which alter GPR120-mediated cell-stimulating activities” (Eisai R&D Management Co., Ltd., priority 2005, dated 2013)

T1: mouse GPR120 (Mus musculus, UniProt Q7TMA4)
T1 construct: expressed in transfected cells; host or cells: SE302 cells (HEK293 clone carrying a CRE-PLAP reporter), transduced with retrovirus from pBabeCL(mGPR120)IH and selected with hygromycin
T1 sequence (Q7TMA4 1-361): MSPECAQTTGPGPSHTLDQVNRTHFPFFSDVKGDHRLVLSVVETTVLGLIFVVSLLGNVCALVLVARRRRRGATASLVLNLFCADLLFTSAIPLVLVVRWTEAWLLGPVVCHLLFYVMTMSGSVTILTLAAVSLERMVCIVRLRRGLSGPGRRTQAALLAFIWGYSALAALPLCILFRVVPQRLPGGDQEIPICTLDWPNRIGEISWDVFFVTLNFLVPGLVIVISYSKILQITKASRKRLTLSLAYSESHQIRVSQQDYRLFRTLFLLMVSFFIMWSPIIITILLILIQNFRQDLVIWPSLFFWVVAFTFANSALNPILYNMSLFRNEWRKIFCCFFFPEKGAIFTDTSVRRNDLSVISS

T2: human GPR120 (Homo sapiens, UniProt Q5NUL3)
T2 construct: open reading frame which starts with ATG of the nucleotide number 1-3 and ends with TAA of the nucleotide number 1084-1086; expressed in transfected cells; host or cells: SE302 cells (HEK293 clone carrying a CRE-PLAP reporter), transduced with retrovirus from pBabeCL(GPR120)IH and selected with hygromycin
T2 sequence (Q5NUL3 1-361): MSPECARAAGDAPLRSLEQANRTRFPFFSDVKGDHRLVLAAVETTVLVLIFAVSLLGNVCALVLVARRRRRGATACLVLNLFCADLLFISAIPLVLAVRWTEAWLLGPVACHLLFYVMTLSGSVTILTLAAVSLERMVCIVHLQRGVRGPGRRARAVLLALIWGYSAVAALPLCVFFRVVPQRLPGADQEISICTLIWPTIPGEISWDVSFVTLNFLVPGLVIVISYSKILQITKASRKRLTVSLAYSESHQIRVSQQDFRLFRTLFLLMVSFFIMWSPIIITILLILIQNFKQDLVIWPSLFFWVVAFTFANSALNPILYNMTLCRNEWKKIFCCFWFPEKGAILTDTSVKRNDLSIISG


Assays:
mouse GPR120 = target: T1, mouse GPR120; assay: PLAP reporter transcription activity in mGPR120-SE302 cells (CRE-PLAP reporter); format: cell-based; details: HEK293-derived SE302 cells expressing mouse GPR120; forskolin 1.0 μM plus sample, 24 hours; chemiluminescence of supernatant; compared to control cells (GFP-SE302)
Protocol: (§1) Using a retrovirus vector plasmid pBabeCLcre4vPdNN capable of inducing a reporter PLAP gene by a cyclic AMP responsive element sequence, a retrovirus vector was prepared according to the method described in Example 4. The retrovirus vector prepared was introduced into HEK293 cells and cells were cloned by a limiting dilution method.
(§2) The SE302 cells constructed in Example 5 were seeded onto a collagen coated 6 well plate (Asahi Technoglass, Co.) at 1.2×10^5 cells per well. Cells were cultured with 2 mL/well of DMEM medium (Sigma, Co.) (containing 10% FBS, penicillin 100 units/mL and streptomycin 100 μg/mL). On the following day, solutions of the virus vector containing GPR120 or mGPR120 obtained in Example 4, and polybrene (also called hexadimethrine bromide, Sigma, Co.) at a final concentration of 8 μg/mL were added to SE302 cells. Cells were cultured with the medium containing 500 μg/mL of hygromycin (Invitrogen, Co.) and cells grown under this condition were used for experiments as SE302 cells introduced with GPR120 gene, and SE302 cells introduced with mGPR120 gene (referred to as “GPR120-SE302 cells” and “mGPR120-SE302 cells”, respectively hereinafter).
The aforementioned GPR120-SE302 cells or mGPR120-SE302 cells constructed in Example 6 were suspended in the culture medium for measurement of transcription activity (DMEM containing FBS which was heat-treated at 65° C. for 30 min at a final concentration of 10%) and seeded onto a 96 well plate (Becton Dickinson, Co.) at 1×10^4 cells/well. In addition, as control cells, SE302 cells expressing green fluorescent protein (GFP, Invitrogen, Co.) (referred to as “GFP-SE302 cells” hereinafter) were used. Specifically, GFP-302 cells were prepared by obtaining a virus for expressing GFP using the method shown in Example 3 and 4, and transfecting SE302 cells with the virus using the method shown in Example 6. Cells were cultured for 24 hours after seeding, and forskolin prepared at a final concentration of 1.0 μM and a sample were added. Cells were cultured for another 24 hours and 5 μL of the cell supernatant was recovered and transferred to a polypropylene 384-well white plate (Nalge Nunc International, Co.). Then, 20 μL of the assay buffer (280 mmol/L Na2CO3—NaHCO3, 8 mmol/L MgSO4, pH 10) and 25 μL of Lumiphos530 (Lumigen, Co.) were added. Following a 2-hour reaction at room temperature, chemiluminescence in each well was measured using a Fusion plate reader (Perkin Elmer, Co.) and was defined as the transcription activity. Based on these measured values, stimulation/inhibition of transcription activity was calculated using the equation (I) shown below and described as [% of control]. Activities of the group with a sample added were calculated using the value of control placed on each plate. [% of control]=(X−C)/(F−C)×100 (I) Herein, in the above equation: • X: PLAP transcription activity in the group added with a sample, • F: Mean value of transcription activities in 2 wells of a positive control (no sample added, stimulated with forskolin), • C: Mean value of transcription activities in 2 wells of a negative control (no sample added, not stimulated with forskolin).

human GPR120 = target: T2, human GPR120; assay: PLAP reporter transcription activity in GPR120-SE302 cells (CRE-PLAP reporter); format: cell-based; details: HEK293-derived SE302 cells expressing human GPR120; forskolin 1.0 μM plus sample, 24 hours; chemiluminescence of supernatant; compared to control cells (GFP-SE302)
Protocol: as §1, §2
The aforementioned GPR120-SE302 cells or mGPR120-SE302 cells constructed in Example 6 were suspended in the culture medium for measurement of transcription activity (DMEM containing FBS which was heat-treated at 65° C. for 30 min at a final concentration of 10%) and seeded onto a 96 well plate (Becton Dickinson, Co.) at 1×10^4 cells/well. In addition, as control cells, SE302 cells expressing green fluorescent protein (GFP, Invitrogen, Co.) (referred to as “GFP-SE302 cells” hereinafter) were used. Specifically, GFP-302 cells were prepared by obtaining a virus for expressing GFP using the method shown in Example 3 and 4, and transfecting SE302 cells with the virus using the method shown in Example 6. Cells were cultured for 24 hours after seeding, and forskolin prepared at a final concentration of 1.0 μM and a sample were added. Cells were cultured for another 24 hours and 5 μL of the cell supernatant was recovered and transferred to a polypropylene 384-well white plate (Nalge Nunc International, Co.). Then, 20 μL of the assay buffer (280 mmol/L Na2CO3—NaHCO3, 8 mmol/L MgSO4, pH 10) and 25 μL of Lumiphos530 (Lumigen, Co.) were added. Following a 2-hour reaction at room temperature, chemiluminescence in each well was measured using a Fusion plate reader (Perkin Elmer, Co.) and was defined as the transcription activity. Based on these measured values, stimulation/inhibition of transcription activity was calculated using the equation (I) shown below and described as [% of control]. Activities of the group with a sample added were calculated using the value of control placed on each plate. […]

Row | Molecule | PLAP activity in mGPR120-SE302 cells (mouse GPR120) | PLAP activity in GPR120-SE302 cells (human GPR120)
1 | porcine pancreatic sPLA2: commercially-available (Sigma) porcine pancreatic sPLA2, reported to be mainly Group IB sPLA2 (Swiss Prot P00592) | concentration dependent elevation of PLAP activity | concentration dependent elevation of PLAP activity
2 | recombinant mGX-sPLA2: C-terminal FLAG-tagged mouse GX-sPLA2 (SEQ ID NO 45) from baculovirus-infected Sf-9 cells, purified (protein, listed as Mus musculus, C-terminal FLAG tag) MLLLLLLLLLGPGPGFSEATRRSHVYKRGLLELAGTLDCVGPRSPMAYMNYGCYCGLGGHGEPRDAIDWCCYHHDCCYSRAQDAGCSPKLDRYPWKCMDHHILCGPAENKCQELLCRCDEELAYCLAGTEYHLKYLFFPSILCEKDSPKCNDYKDDDDK | concentration dependent elevation of PLAP activity | concentration dependent elevation of PLAP activity
3 | hGX-sPLA2-His: purified human C-terminal His-tagged GX-sPLA2 from baculovirus-infected Sf9 cells (protein, UniProt O15496 43-165, looked up, C-terminal His6 tag, purified human C-terminal His-tagged GX-sPLA2 from baculovirus-infected Sf9 cells) Group 10 secretory …: GILELAGTVGCVGPRTPIAYMKYGCFCGLGGHGQPRDAIDWCCHGHDCCYTRAEEAGCSPKTERYSWQCVNQSVLCGPAENKCQELLCKCDQEIANCLAQTEYNLKYLFYPQFLCEPDSPKCD | concentration dependent elevation of PLAP activity | 
4 | GX-sPLA2: rat Group X secretory phospholipase A2 (SEQ ID NO 23) purified from rat intestinal tract and testis extracts (protein, listed as Rattus norvegicus) GLLELAGTLDCVGPRSPMAYMNYGCYCGLGGHGEPRDAIDWCCYYHDCCYSQAQDAGCSPKLYRYPWKCMDHRILCGPAENKCQELLCRCDETLAYCLADTEYHLKYLFFPSVLCEKDSPKCN |  | elevate PLAP activity specifically in GPR120-SE302 cells
5 | mGX-sPLA2-His: purified mouse C-terminal His-tagged GX-sPLA2 from baculovirus-infected Sf9 cells (protein, UniProt Q9QXX3 29-151, looked up, C-terminal His6 tag, purified mouse C-terminal His-tagged GX-sPLA2 from baculovirus-infected Sf9 cells) Group 10 secretory …: GLLELAGTLDCVGPRSPMAYMNYGCYCGLGGHGEPRDAIDWCCYHHDCCYSRAQDAGCSPKLDRYPWKCMDHHILCGPAENKCQELLCRCDEELAYCLAGTEYHLKYLFFPSILCEKDSPKCN | concentration dependent elevation of PLAP activity | 
6 | recombinant hGX-sPLA2: C-terminal FLAG-tagged human GX-sPLA2 (SEQ ID NO 43) produced in silkworm pupae, purified (protein, listed as Homo sapiens, C-terminal FLAG tag) MGPLPVCLPIMLLLLLPSLLLLLLLPGPGSGEASRILRVHRRGILELAGTVGCVGPRTPIAYMKYGCFCGLGGHGQPRDAIDWCCHGHDCCYTRAEEAGCSPKTERYSWQCVNQSVLCGPAENKCQELLCKCDQEIANCLAQTEYNLKYLFYPQFLCEPDSPKCDDYKDDDDK | concentration dependent elevation of PLAP activity | concentration dependent elevation of PLAP activity
